From patent publication US20070141716 come the findings set out here.

Data set [1] addresses UBC13/Uev1 heterodimer, P61088.

UBC13/Uev1 heterodimer, P61088, sequence (P61088 whole entry, chain 1 of 2): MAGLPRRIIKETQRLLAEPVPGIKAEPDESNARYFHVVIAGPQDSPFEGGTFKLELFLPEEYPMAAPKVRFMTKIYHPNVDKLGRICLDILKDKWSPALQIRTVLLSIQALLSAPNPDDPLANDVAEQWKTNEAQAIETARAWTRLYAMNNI
UBC13/Uev1 heterodimer, P61088, sequence (chain, as listed by the source, chain 2 of 2): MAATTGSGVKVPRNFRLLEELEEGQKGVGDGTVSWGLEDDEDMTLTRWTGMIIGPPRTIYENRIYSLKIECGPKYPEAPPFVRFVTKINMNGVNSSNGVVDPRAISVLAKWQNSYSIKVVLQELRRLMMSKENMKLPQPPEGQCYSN
UbcH5c, P61077, sequence (P61077 whole entry): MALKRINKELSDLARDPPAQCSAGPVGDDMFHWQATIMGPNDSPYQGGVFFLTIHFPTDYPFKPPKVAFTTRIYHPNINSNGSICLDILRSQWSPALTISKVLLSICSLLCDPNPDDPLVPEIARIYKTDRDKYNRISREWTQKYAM

B1: glutathione-S-transferase protein (GST)-PEM-3-like fusion protein (protein)
chain: MMAAMLSHAYGPGGCGAAAAALNGEQAALLRRKSVNTTECVPVPSSEHVAEIVGRQGCKIKALRAKTNTYIKTPVRGEEPIFVVTGRKEDVAMAKREILSAAEHFSMIRASRNKNGPALGGLSCSPNLPGQTTVQVRVPYRVVGLVVGPKGATIKRIQQQTHTYIVTPSRDKEPVFEVTGMPENVDRAREEIEMHIAMRTGNYIELNEENDFHYNGTDVSFEGGTLGSAWLSSNPVPPSRARMISNYRNDSSSSLGSGSTDSYFGSNRLADFSPTSPFSTGNFWFGDTLPSVGSEDLAVDSPAFDSLPTSAQTIWTPFEPVNPLSGFGSDPSGNMKTQRRGSQPSTPRLSPTFPESIEHPLARRVRSDPPSTGNHVGLPIYIPAFSNGTNSYSSSNGGSTSSSPPESRRKHDCVICFENEVIAALVPCGHNLFCMECANKICEKRTPSCPVCQTAVTQAIQIHS
On to B1, for which, in data set [1], the “free polyubiquitin chain formation, immunoblot” value is “free polyubiquitin chains were only generated in the presence of UBC13/Uev1 heterodimer and a complete ubiquitin conjugation system”; the “in vitro self-ubiquitination, anti-ubiquitin immunoblot” value is recorded as “high molecular weight PEM-3-like-ubiquitin adducts were detected by anti-ubiquitin immunoblot analysis”; the “ubiquitin ligase activity by TR-FRET” value was “PEM-3-like acts as an E3 ligase with both UbcH5 and UBC13/Uev1”. In addition, the “ubiquitin ligase activity by TR-FRET” value with UbcH5c, P61077 is “PEM-3-like acts as an E3 ligase with both UbcH5 and UBC13/Uev1”.
